Values of other authors, collected in PMC8217106.

Target: BCL9 (Homo sapiens) (UniProt O00512)
Sequence of UniProt O00512 (O00512 whole entry): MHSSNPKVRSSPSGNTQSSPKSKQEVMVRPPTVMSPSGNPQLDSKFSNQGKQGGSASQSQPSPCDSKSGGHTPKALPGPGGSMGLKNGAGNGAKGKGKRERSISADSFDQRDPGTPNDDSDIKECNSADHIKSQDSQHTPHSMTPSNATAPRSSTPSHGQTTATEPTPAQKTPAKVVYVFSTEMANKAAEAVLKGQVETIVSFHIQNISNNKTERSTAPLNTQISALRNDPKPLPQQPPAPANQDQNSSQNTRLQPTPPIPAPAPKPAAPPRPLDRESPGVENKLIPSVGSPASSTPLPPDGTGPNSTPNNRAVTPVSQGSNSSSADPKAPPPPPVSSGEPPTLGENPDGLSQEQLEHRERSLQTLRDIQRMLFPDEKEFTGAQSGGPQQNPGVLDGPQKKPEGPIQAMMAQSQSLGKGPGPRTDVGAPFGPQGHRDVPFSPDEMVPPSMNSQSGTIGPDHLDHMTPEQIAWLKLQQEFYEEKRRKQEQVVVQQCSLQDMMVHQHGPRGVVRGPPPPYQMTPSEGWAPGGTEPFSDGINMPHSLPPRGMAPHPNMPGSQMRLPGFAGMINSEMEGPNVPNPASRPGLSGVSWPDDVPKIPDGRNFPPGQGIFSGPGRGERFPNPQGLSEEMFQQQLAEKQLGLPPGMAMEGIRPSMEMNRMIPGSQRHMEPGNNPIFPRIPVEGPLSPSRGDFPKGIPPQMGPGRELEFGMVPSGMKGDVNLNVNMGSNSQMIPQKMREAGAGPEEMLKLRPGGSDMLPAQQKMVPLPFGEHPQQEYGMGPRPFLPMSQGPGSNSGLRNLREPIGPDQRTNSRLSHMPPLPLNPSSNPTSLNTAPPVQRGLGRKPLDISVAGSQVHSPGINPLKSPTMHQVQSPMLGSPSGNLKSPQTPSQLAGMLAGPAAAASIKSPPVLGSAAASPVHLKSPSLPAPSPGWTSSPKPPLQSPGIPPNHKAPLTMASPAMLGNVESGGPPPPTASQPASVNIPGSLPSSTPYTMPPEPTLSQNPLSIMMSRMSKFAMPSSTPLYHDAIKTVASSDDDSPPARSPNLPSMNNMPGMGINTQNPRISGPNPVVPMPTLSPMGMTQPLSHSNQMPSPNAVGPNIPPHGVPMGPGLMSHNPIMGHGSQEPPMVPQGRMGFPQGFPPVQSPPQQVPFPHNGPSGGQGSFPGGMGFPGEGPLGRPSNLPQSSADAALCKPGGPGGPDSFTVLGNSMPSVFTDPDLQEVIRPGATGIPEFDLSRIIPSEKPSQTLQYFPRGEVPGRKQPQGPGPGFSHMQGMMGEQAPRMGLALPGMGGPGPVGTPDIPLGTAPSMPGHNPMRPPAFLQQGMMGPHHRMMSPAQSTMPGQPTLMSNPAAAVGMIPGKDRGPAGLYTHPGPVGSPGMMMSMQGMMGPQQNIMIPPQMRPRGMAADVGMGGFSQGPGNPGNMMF

Substance: β-catenin (from UniProt P35222)
- Kd: 470 nM
